Measured values from US20060057144A1 (published 2006).

B1: PsFcγRIIa (recombinant soluble human FcγRIIa protein produced in baculovirus-infected Sf-21 cells) (receptor)
chain: APPKAVLKLEPPWINVLQEDSVTLTCQGARSPESDSIQWFHNGNLIPTHTQPSYRFKANNNDSGEYTCQTGQTSLSDPVHLTVLFEWLVLQTPHLEFQEGETIMLRCHSWKDKPLVKVTFFQNGKSQKFSHLDPTFSIPQANHSHSGDYHCTGNIGYTLFSSKPVTITVQV
notes: Amplified from FcγRIIa LR cDNA; also called PsFc.RIIa; soluble FcγRIIa
B2: acetylated hexapeptide of sequence FQNGKS (Ac-Phe-Gln-Asn-Gly-Lys-Ser-NH2) (peptide)
peptide: Ac-FQNGKS-NH2

Legend:
monomeric human IgG3 [1] = biological target: T1, monomeric human IgG3 (human, UniProt P01860-1 1-377); test: SPR equilibrium, two site fit, immobilised IgG3; 50% of the sites
T1 construct: Immobilised by amine coupling on a CM5 chip
T1 sequence (P01860 other isoform, or with tags, fused parts or gaps): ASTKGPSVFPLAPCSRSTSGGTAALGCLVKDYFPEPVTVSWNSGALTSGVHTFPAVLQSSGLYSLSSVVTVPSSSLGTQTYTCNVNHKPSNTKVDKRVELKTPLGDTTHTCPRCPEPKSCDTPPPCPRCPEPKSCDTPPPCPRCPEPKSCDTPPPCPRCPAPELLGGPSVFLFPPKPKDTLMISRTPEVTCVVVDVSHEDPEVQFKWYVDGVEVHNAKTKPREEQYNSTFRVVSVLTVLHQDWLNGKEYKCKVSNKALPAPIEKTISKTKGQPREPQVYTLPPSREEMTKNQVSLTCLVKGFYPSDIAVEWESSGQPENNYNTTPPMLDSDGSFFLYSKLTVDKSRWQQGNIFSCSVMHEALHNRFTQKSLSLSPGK
Procedure: (§1) About 4000 to about 6000 response units (RU) of monomeric human immunoglobulin subclasses IgG1, IgG2, IgG3, and IgE (50 ug/ml of each) were covalently coupled to separate carboxymethylated dextran surface of each CM5 sensor-chips (available from BIAcore, Uppsala, Sweden) using a amine coupling kit (available from BIAcore), according to manufacturer's methods. […] Following administration of the protein, the immunoglobulin surface was regenerated on each chip using a buffer containing 50 mM diethylamine pH 11.5, and 1 M NaCl. […] Data points obtained from the IgE channels were subtracted to correct for refractive index differences.

monomeric human IgG1 [2] = biological target: T2, monomeric human IgG1 (human); test: SPR equilibrium, two site fit, immobilised IgG1; about 90% of the sites
T2 construct: Immobilised by amine coupling on a CM5 chip
Procedure: as §1

monomeric human IgG1 [3] = biological target: T2, monomeric human IgG1; test: SPR equilibrium, two site fit, immobilised IgG1; remaining 10% of the sites
Procedure: as §1

monomeric human IgG3 [4] = biological target: T1, monomeric human IgG3; test: SPR equilibrium, two site fit, immobilised IgG3; remaining 50% of the sites
Procedure: as §1

[5] = biological target: B1; test: SPR; FcγRIIa (50 µg/mL) premixed with a range of hexapeptide concentrations, passed over immobilised IgG1; against no peptide
Procedure: (§2) At the conclusion of the concentration dependence measurements all surfaces were regenerated using 50 mM diethylamine (pH 11.5), 1 M NaCl. The total response measured for each concentration of peptide was determined and plotted against the peptide concentration. The non-specific binding responses (IgE channel) were subtracted from binding to IgG1 or IgG3.

[6] = biological target: B1; test: SPR; FcγRIIa (50 µg/mL) premixed with a range of hexapeptide concentrations, passed over immobilised IgG3; against no peptide
Procedure: as §2

Binder | Ka (monomeric human IgG3 [1]) | Ka (monomeric human IgG1 [2]) | Ka (monomeric human IgG1 [3]) | Ka (monomeric human IgG3 [4]) | fold enhancement of FcγRIIa binding to IgG1 [5] | fold enhancement of FcγRIIa binding to IgG3 [6]
B1 | ~2.7e+06 M⁻¹ | ~2.1e+06 M⁻¹ | ~23000 M⁻¹ | ~12000 M⁻¹ |  | 
B2 |  |  |  |  | 4 fold | 1.6 fold
